Patent US20210228853A1, “DRUG DELIVERY METHODS TARGETING THE LYMPHATIC SYSTEM” (Sorrento Therapeutics, Inc., priority 2018, published 2021)

Key:
[1] = Biodistribution of radiolabeled etanercept to axillary and inguinal lymph nodes; format: in vivo; settings: rat; Sofusa vs intravenous or subcutaneous; 12 and 36 hours; 1 mg
Method: In order to determine the amount etanercept delivered to the lymph nodes, a radiolabeled etanercept solution was administrated using the Sofusa™ drug delivery platform (1 mg etanercept in 100 μL), IV (1 mg etanercept in the tail vein in 100 μL), SC (1 mg etanercept in the dorsolateral side at the same site as the Sofusa™ application, 100 μL), and ID (1 mg total etanercept in two 50 μL injections). Animals were harvested at 12 and 36 hrs after administration, and the left/right axillary and inguinal lymph nodes were collected, weighed, and counted for radioactivity using a 2480 Wizard2 automatic gamma counter (PerkinElmer, Waltham, Mass., USA). The time-corrected radioactivity was then used to compute the μg/mL of tissue etanercept concentration from the specific radioactivity of the dosing solution with animals that were euthanized at 12 hrs (n=4, Sofusa™; n=6, IV; n=6, ID; and n=6, SC) and at 36 hrs (n=6, Sofusa™; n=6, IV; n=6, ID; and n=6, SC).
In order to validate the amount of etanercept delivered, the radioactivity was measured in the Sofusa™ device and tubing before and after the 1 hr infusion. Measurement was conducted using the dose calibrator. The amount of etanercept delivered as the difference in the time-corrected radioactivity before and after administration was determined.

[2] = test system: Collagen Induced Arthritic (CIA) Model for Rheumatoid Arthritis (RA); assay: Collagen induced arthritic (CIA) model for rheumatoid arthritis, hind limb/joint swelling; format: in vivo, rat
Method: (§1) Specifically, type II porcine collagen (Chondrex, Inc. catalog #20031), solubilized in 0.05 N of acetic acid in sterile water at a concentration of 2 mg/mL was emulsified with an equal volume of incomplete Freud's adjuvant (Chondrex, Inc. catalog #7002) using homogenization at 35,000 rpm (Omni International homogenizer TH, homogenizer probe #32750); 100 μL emulsion was injected subcutaneously at the base of the tails on both sides for initial administration (day 0, 200 μL of emulsion total), and then again, 7 days later, on the right side only, for booster administration (day 7, 100 μL of emulsion total). Hind limb swelling, usually evident by day 14, was assessed by caliper measurements of the rear ankle cross (side-to-side) and oblique (front-to-back) dimensions. The two measurements for each hind limb were multiplied together for assessment of swelling, and the percent change from baseline was computed. These measurements and lymphatic imaging were performed on days 0, 7, 11, 13, and 18, in the early stages of CIA before the onset of joint destruction. Four groups of animals were studied: (1) untreated (n=20), (2) treated with etanercept given by SC administration (n=20, 1 mg in 100 μL), (3) treated with etanercept given by ID administration (n=20, two administrations of 0.5 mg in 50 μL), and (4) treated with etanercept given via Sofusa™ (n=18, one administration of 1 mg in 100 μL delivered).

[3] = test system: Collagen Induced Arthritic (CIA) Model for Rheumatoid Arthritis (RA); assay: Lymphatic pumping rate by NIRF imaging in CIA rats; format: in vivo, rat; settings: for lymphatic pumping in the hind limbs vs untreated animals: CIA rat, days 13 and 18 post CIA induction
Method: as §1, with “delivered). Rats were anesthetized with isoflurane and shaved before imaging; 10 μL of 625 μM ICG was then injected ID with a 31-gauge needle/syringe (BD #328438, Fisher Scientific) at the base of the tail and on the dorsal side of the paw on both the right and left sides of the rats to perform NIRF imaging of the lymphatics. […] The integration time for fluorescence images was 200 ms; 300-900 images were collected per lateral side per rat for lymph propulsive frequency measurements. […]” for “delivered).”

[4] = Etanercept pharmacokinetics in porcine model by route of administration; format: in vivo, Yorkshire pig
[5] = Etanercept pharmacokinetics in rat serum by route of administration (ELISA); format: in vivo, Sprague Dawley rats
Method: Methods and procedures for some of these experiments have been adapted from Aldrich, et al., Arthritis Res. Ther., (2017), 19:116 (DOI 10.1186/s13075-017-1323-z; Open Access) which is incorporated by reference herein in its entirety for all purposes.
In order to characterize differences in etanercept delivery by the different routes of administration, normal rats were used to determine the PK profiles following a single dose of 1 mg etanercept in 100 μL delivered via Sofusa™ (n=6), conventional IV (in the tail vein, n=6), SC (dorsolateral injection at the same site as the Sofusa™ application, n=4), or ID injections (symmetrical dorsolateral injections 2×50 uL for a total dose of 1 mg etanercept, n=6). Other than the Sofusa™ delivery, all administration was conducted using a 31-gauge needle. At 2, 4, 8, 12, 24, and 36 h after administration, animals were anesthetized under isoflurane, and 200 μL of blood was drawn from the jugular vein. The etanercept concentration in serum was quantified using the Etanercept ELISA Kit (ABIN: 1540251) (Matriks Biotechnology Co., LTD., Ankara, Turkey). Optical density was measured at 450 nm using Thermo Scientific Multiskan EX (Thermo Fisher Scientific, Waltham, Mass., USA).

[6] = Sofusa drug delivery platform vs subcutaneous
[7] = Table 1, IV, 1 mg etanercept single dose
[8] = Table 1, SC, 1 mg etanercept single dose
[9] = Table 2 summary, Sofusa drug delivery platform

Substance: etanercept
- active agent in the axillary and inguinal lymph nodes [1]: significantly more of the active agent
- joint swelling over time ([2]; CIA RA rat model, Sofusa administration, 1 mg): decreased joint swelling over time
- increase in swelling with progression of disease (paired group comparisons, ANOVA) ([2]; CIA rat, ID administration): swelling was significantly increased
- increase in swelling with progression of disease (paired group comparisons, ANOVA) ([2]; CIA rat, SC administration): swelling was significantly increased
- increase in swelling with progression of disease (paired group comparisons, ANOVA) ([2]; CIA rat, SOFUSA administration): no statistically significant increase in swelling
- swelling of the hind limbs vs untreated animals ([2]; CIA rat, all treated groups (SC, ID, Sofusa), days 13 and 18): significant reduction in swelling
- hind limb swelling, SOFUSA compared to SC-treated animals ([2]; CIA rat, days 13 and 18): significantly reduced hind limb swelling
- lymphatic pumping rate ([3]; CIA RA rat, Sofusa compared to untreated, ID and SC groups): significantly increased
- lymphatic pumping in the hind limbs vs untreated animals ([3]; SC administration): statistically significant greater lymphatic pumping
- lymphatic pumping in the hind limbs vs untreated animals ([3]; SOFUSA administration): statistically significant greater lymphatic pumping
- AUC48 and bioavailability, Sofusa vs intravenous [4]: comparable to that for intravenous administration
- AUC48 and bioavailability, Sofusa vs subcutaneous [4]: significantly higher than that for subcutaneous delivery
- serum concentration ([4]; Sofusa at a dose much lower than subcutaneous administration): maintained a serum concentration at a therapeutically effective concentration
- AUC0-48 ([4]; Table 4, IV): 143 hrs-μg/mL
- BA ([4]; Table 4, IV): 100%
- Cmax ([4]; Table 4, IV): 6000 ng/mL
- Tmax ([4]; Table 4, IV): 2 h
- AUC0-48 ([4]; Table 4, SC): 89 hrs-μg/mL
- BA ([4]; Table 4, SC): 62%
- Cmax ([4]; Table 4, SC): 2000 ng/mL
- Tmax ([4]; Table 4, SC): 24 h
- AUC0-48 ([4]; Table 4, Sofusa): 132 hrs-μg/mL
- BA ([4]; Table 4, Sofusa): 93%
- Cmax ([4]; Table 4, Sofusa): 4400 ng/mL
- Tmax ([4]; Table 4, Sofusa): 24 h
- AUC48, Sofusa compared to SC [5, 6]: almost double
- Tmax, Sofusa compared to SC [5, 6]: significantly shorter
- AUC0-48 [5, 7]: 2,800 hrs-μg/mL
- BA [5, 7]: 100%
- Cmax [5, 7]: 120000 ng/mL
- Tmax [5, 7]: 8 h
- AUC0-48 [5, 8]: 302 hrs-μg/mL
- BA [5, 8]: 10%
- Cmax [5, 8]: 15000 ng/mL
- Tmax [5, 8]: 36 h
- AUC0-48 ([5]; Table 1, Sofusa Study 1): 545 hrs-μg/mL
- BA ([5]; Table 1, Sofusa Study 1): 20%
- Cmax ([5]; Table 1, Sofusa Study 1): 25000 ng/mL
- Tmax ([5]; Table 1, Sofusa Study 1): 4 h
- AUC0-48 ([5]; Table 1, Sofusa Study 2): 502 hrs-μg/mL
- BA ([5]; Table 1, Sofusa Study 2): 18%
- Cmax ([5]; Table 1, Sofusa Study 2): 22000 ng/mL
- Tmax ([5]; Table 1, Sofusa Study 2): 2 h
- AUC0-48 ([5]; Table 1, Sofusa Study 3): 538 hrs-μg/mL
- BA ([5]; Table 1, Sofusa Study 3): 19%
- Cmax ([5]; Table 1, Sofusa Study 3): 20000 ng/mL
- Tmax ([5]; Table 1, Sofusa Study 3): 2 h
- AUC0-48 ([5]; Table 2 summary, SC): 492 hrs-μg/mL
- BA ([5]; Table 2 summary, SC): 17%
- Cmax ([5]; Table 2 summary, SC): 15000 ng/mL
- Tmax ([5]; Table 2 summary, SC): 36 h
- AUC0-48 [5, 9]: 800 hrs-μg/mL
- BA [5, 9]: 29%
- Cmax [5, 9]: 19000 ng/mL
- Tmax [5, 9]: 10 h
- AUC0-36 ([5]; Table 3, Intradermal): 696 µg·h/mL
- BA ([5]; Table 3, Intradermal): 25%
- Cmax ([5]; Table 3, Intradermal): 21000 ng/mL
- Tmax ([5]; Table 3, Intradermal): 12 h
- AUC0-36 ([5]; Table 3, Intravenous): 2,815 μg-hour/ml
- BA ([5]; Table 3, Intravenous): 100%
- Cmax ([5]; Table 3, Intravenous): 120000 ng/mL
- Tmax ([5]; Table 3, Intravenous): 2 h
- AUC0-36 ([5]; Table 3, Sofusa): 1010 µg·h/mL
- BA ([5]; Table 3, Sofusa): 36%
- Cmax ([5]; Table 3, Sofusa): 23000 ng/mL
- Tmax ([5]; Table 3, Sofusa): 12 h
- AUC0-36 ([5]; Table 3, Subcutaneous): 302 µg·h/mL
- BA ([5]; Table 3, Subcutaneous): 11%
- Cmax ([5]; Table 3, Subcutaneous): 15000 ng/mL
- Tmax ([5]; Table 3, Subcutaneous): 36 h
